B1: His::emerin 1–125 (Ce-emerin residues 1–125, nucleoplasmic domain only) (domain or fragment, C. elegans, UniProt O01971 1-125, looked up)
chain: MDVSQLTDAELRDSLKSHGVSVGPIVATTRKLYEKKLIKLSDGSINNQSNLNDSQFNEDSLIISSSPKKSPPQRVFQNVSAATAAATTSPESDSDDCEESMRYLTEEEMAADRASARQAQSNKGG
B8: His::lamin R55H (full-length Ce-lamin bearing the R55H mutation) (natural protein, C. elegans, UniProt Q21443 1-566, looked up)
chain: MSSRKGTRSSRIVTLERSANSSLSNNGGGDDSFGSTLLETSRLQEKDHLTSLNSHLATYIDKVRQLEQENNRLQVQIRDIEVVEKKEKSNLADRFEAEKARLRRALDSAQDELAKYRIEYDAAKVEVKKLKPQVEKLERELAGAEEQALHAQSIADQSQAKQKTLQARNDKLVVENDDLKKQNITLRDTVEGLKKAVEDETLLRTAANNKIKALEEDLAFALQQHKGELEEVRHKRQVDMTTYAKQINDEYQSKLQDQIEEMRAQFKNNLHQNKTAFEDAYKNKLNAARERQEEAVSEAIHLRARVRDLETSSSGNASLIERLRSELDTLKRSFQEKLDDKDARIAELNQEIERMMSEFHDLLDVKIQLDAELKTYQALLEGEEERLNLTQEAPQNTSVHHVSFSSGGASAQRGVKRRRVVDVNGEDQDIDYLNRRSKLNKETVGPVGIDEVDEEGKWVRVANNSEEEQSIGGYKLVVKAGNKEASFQFSSRMKLAPHASATVWSADAGAVHHPPEVYVMKKQQWPIGDNPSARLEDSEGDTVSSITVEFSESSDPSDPADRCSIM

Common to all, as to assay: SPR
(In general: SPR reads the build-up and loss of mass on a sensor chip optically.)

Data set [1] has as its target B8.
Data set [2] deals with the molecule itself.
Data set [3] addresses B1.
Data set [4] addresses B8. This is another data set of the same source.
Data set [5] deals with the molecule itself. This is another data set of the same source.

Where two headings read alike, the source gives them in different places.

As to B1, the Kd in data set [1] is 4 to 5 nM; in data set [2], 14 nM.

B2: MBP::BAF-1 (wild-type C. elegans barrier to autointegration factor 1 fused to maltose-binding protein) (natural protein, UniProt Q03565 1-89, looked up)
chain: MSTSVKHREFVGEPMGDKEVTCIAGIGPTYGTKLTDAGFDKAYVLFGQYLLLKKDEDLFIEWLKETAGVTANHAKTAFNCLNEWADQFM
Take B2: the Kd in data set [3] is 57 nM; in data set [4], 84 nM.

B3: MBP::BAF-1 F46E (natural protein, C. elegans, UniProt Q03565 1-89, looked up)
chain: MSTSVKHREFVGEPMGDKEVTCIAGIGPTYGTKLTDAGFDKAYVLEGQYLLLKKDEDLFIEWLKETAGVTANHAKTAFNCLNEWADQFM
On to B3, for which the Kd came out at 5.6 nM in data set [3] and 623 nM in data set [4].

B4: MBP::BAF-1 S4E (natural protein, C. elegans, UniProt Q03565 1-89, looked up)
chain: MSTEVKHREFVGEPMGDKEVTCIAGIGPTYGTKLTDAGFDKAYVLFGQYLLLKKDEDLFIEWLKETAGVTANHAKTAFNCLNEWADQFM
With B4, the Kd is around 57 nM in data set [3] and 32100 nM in data set [4].

B5: MBP::BAF-1 K6A (natural protein, C. elegans, UniProt Q03565 1-89, looked up)
chain: MSTSVAHREFVGEPMGDKEVTCIAGIGPTYGTKLTDAGFDKAYVLFGQYLLLKKDEDLFIEWLKETAGVTANHAKTAFNCLNEWADQFM
For B5, the Kd in data set [3] was determined as 31 nM; in data set [4], 198 nM.

B6: MBP::BAF-1 S4A (natural protein, C. elegans, UniProt Q03565 1-89, looked up)
chain: MSTAVKHREFVGEPMGDKEVTCIAGIGPTYGTKLTDAGFDKAYVLFGQYLLLKKDEDLFIEWLKETAGVTANHAKTAFNCLNEWADQFM
In the case of B6, the Kd is 20 nM in data set [3] and 281 nM in data set [4].

B7: Ce-lamin tail domain (residues 388–566), His-tagged (domain or fragment, C. elegans, UniProt Q21443 388-566, looked up)
chain: NLTQEAPQNTSVHHVSFSSGGASAQRGVKRRRVVDVNGEDQDIDYLNRRSKLNKETVGPVGIDEVDEEGKWVRVANNSEEEQSIGGYKLVVKAGNKEASFQFSSRMKLAPHASATVWSADAGAVHHPPEVYVMKKQQWPIGDNPSARLEDSEGDTVSSITVEFSESSDPSDPADRCSIM
In the case of B7, the affinity in data set [4], expressed as Kd, was 0.56 nM.

On to B8, for which binding in data set [5] was put at a Kd of 3.7 nM.

Broadly, the Kd is the free concentration of one partner at which half of the binding sites on the other are occupied at equilibrium, for simple one-to-one binding. A high value points to weaker binding.

The record behind these values is article PMC3967975 (Molecular Biology of the Cell, 2014).
